Reference: publication PMC11231100 (2024)

Tests used:
CD47 [1] = molecular target: T1, CD47 (human (endogenous in Jurkat and Reh), UniProt Q08722 19-323); experiment: FACS; competition with SIRPα-mFc on Reh cells (CD38high/CD47+)
CD47 [2] = molecular target: T1, CD47; experiment: FACS; competition with SIRPα-mFc on Jurkat cells (CD38low/CD47+)

B1: IMM01 (SIRPα Fc fusion protein) (Fc fusion)
chain: EEELQVIQPDKSVLVAAGETATLRCTATSLIPVGPIQWFRGAGPGRELIYNQKEGHFPRVTTVSDLTKRNNMDFSIRIGNITPADAGTYYCVKFRKGSPDDVEFKSGAGTELSVRAKP
modifications: SIRPα IgV domain (SD1), limits by convention (complete V domain through its last strand, just before the first C1 domain); dimeric through an Fc that is left out; allelic variant and any engineered substitution not given
Binder B1 has an IC50 (CD47 [1]) of 0.216 mg/L and an IC50 (CD47 [2]) of 0.0977 mg/L.
